Test results published in the DeepSol protein solubility set.

Assay: soluble on expression in E. coli; label from the status in PepcDB or PDB records
With “MSLERQEHSPLILLGEDEKFQATIVKDVLERKNFDVRIAPNGKVAYEMFCENRLFQLVIVDVFMPVVDGLRSVKLIRQYESNHQIERCPIIICSGNESIIRSGNNSQDTGGDAFVSKPFRPSLIDLVYKLIGKKEGHHHHHH” the “soluble on expression in E. coli” value was “not soluble”.
In the case of “MIPMFKKKPLIGMVHLKPLPGSYHYNDNFDDIVDFAIKEAKKLEEAGFDAVMIENFGDAPFKKEADKITIASMAVIAKAIKEEVSLPLGINILRNDAIGAYSIAYVVKADFIRVNVLSGVAFTDQGIIEGKAYELAKLKKLLPSKIKVFADVHVKHAYHFIDFESSLLDTVERGLADAVIISGKRTGKEVDIEKLKLAKELVDVPVIVGSGTNYNNLRILWSYADGFIIGTWIKKDGKANNEIDIDRAKKIVNLANKLKMCLEHHHHHH”, the “soluble on expression in E. coli” value is reported as “soluble”.
With “MKGGAGVPDLPSLDASGVRLAIVASSWHGKICDALLDGARKVAAGCGLDDPTVVRVLGAIEIPVVAQELARNHDAVVALGVVIRGQTPHFDYVCDAVTQGLTRVSLDSSTPIANGVLTTNTEEQALDRAGLPTSAEDKGAQATVAALATALTLRELRAHS” the “soluble on expression in E. coli” value was “soluble”.
For “MVCQHNDELEALVKKAKKVTDKGEVASYIPALAKADKHDLSVAIYYSNNVCLSAGDVEKTFTLQSISKVLSLALVLMEYGKDKVFSYVGQEPTGDPFNSIIKLETVNPSKPLNPMINAGALVVTSLIRGRTVKERLDYLLSFIRRLTNNQEITYCREVAESEYSTSMINRAMCYYMKQYGIFEDDVEAVMDLYTKQCAIEMNSLDLAKIGSVFALNGRHPETGEQVISKDVARICKTFMVTCGMYNASGEFAIKVGIPAKSGVSGGIMGISPYDFGIGIFGPALDEKGNSIAGVKLLEIMSEMYRLSIFLEHHHHHH”, the “soluble on expression in E. coli” value was “soluble”.
With “MAEIDYKKVTGMIHSTESFGSVDGPGIRFIIFMQGCKMRCQYCHNPDTWEMETNNSKERTVEDVLKEALRYKHFWGKDGGITVSGGEAMLQIDFITALFIEAKKLGIHTTLDTCGFAYRATPEYHAILEKLLDVTDLVLLDLKEIDSEQHKIVTRQSNKNILQFARYLSDRGTPVWIRHVLVPGLTD” the “soluble on expression in E. coli” value was “not soluble”.
For “SLSDPIIDMHLHASAADEQGPPPLAMCAPINPMPTWDQRQPWTTGLIAMFKAPKCADPIWSPTTDDEIRDKTLAIMAKRNIIGVVSGPYKRVMAWRALAPDRVLPGLMPTMSDLSKPKVLLDDFGKAKAAGQLAVIGELGFQYEGIAPNDPRLENLWAAAEAADVPVAIHIGPGPPGVAYLPGGGYRARMSSPLLLEDVLVKHPKLRINVMHAGYPMLDDTLALLYAHPQVYVDTGVIVYSQPRPAFYRYLQTLVDAGFGERVMFGSDQMVWPETIERSIAVIDEAPFLSAQQKRDILYNNAARFLRLDEATQAKHRAM”, the “soluble on expression in E. coli” value was “soluble”.
For “MVIILAMTNREKFKVLADQIKISNQLEQDILEQGELTRIDVSNKNRTWTFQISLPHFLSHEDYLLFTHAIEEEFKEIATVAIDFSIKDTNNQDEFALKYFGHCIDQTRLSPKVKGQLKQKKLIMSGNVLKVLVSNDIERNHFDKACNGSLVKA”, the “soluble on expression in E. coli” value was “not soluble”.
For “MNEKEKIIEYWRRRARECLDDAKLLLKNERLHSAVNRIYYALFYQVSALLLAKGLSFSKHSGVLAAFNREFVKTGKVNKELGKFYNRMFEHRKTGDYGELVEFEEENVKDWIRKAEGFLDAIEKLIEDLKRA”, the “soluble on expression in E. coli” value was “not soluble”.
For “MGSDKIHHHHHHMDENEFDNQRENKAVARVIISFLKYEEYALKEIYNLRVKKWASISDRQKDMVPNYTKYLANLKAAIIENGKFFRSVAEYALQSISFEPGEIVQPNDLDMSKTCSLLTQVYREWSAEAISERNCLNSRLVPFLKTLSPPKADILIPGCGTGRLLVDLSRMGYNCEGNEFSYHMLLVSQYMLNAGLLQNQIIIYPFIHCFSHWKKIEDQLSPIKVPDIEAWSSNKGMGSMSICAGSFVDCYGRNQGTKISSHYTFSRRMQLSRAKAENSKDVVVTNFFIDTGSNILDYLDTIGHVLKPGGIWCNFGPLLYHFENDHGVETTYEVNPYSGFQDKINDYTPLMGLELSSDDIISIATNHLDFELIRRESGILCGYGRYAGPESCAMPGYMCHYWILKSNPTNES”, the “soluble on expression in E. coli” value was “not soluble”.
For “MGSSHHHHHHSSGRENLYFQGMVDADGIYYLGPEGSFTHEAASLFKGKDLKAESTISLVFKRVYERESSIGIVPIENSLEGPVNETLDNLYNYDNIYVIGEIEKKIELVLAARSDNLSQIKRIYSHPHAFNEAREKLKELGFNEYIPVESTSKAAKIVSQDSEAAAICSNFAAKLYNLKVLITISSHNNYTRFIVLSKEMNSNGNKSMILFTVPHKPGALYKVLQVFYEYNINISMIYSRPLKSIPWQYYFYLEYEGGISNREFIEKLVKSTSVLKIKGSFSKLNNDPGF”, the “soluble on expression in E. coli” value was “soluble”.
In the case of “MGSSHHHHHHSSGLVPRGSHGLVPRGSHMSDDMSMGLPSSAGEHGVLRSMQEVAMSSQEASKMLRTYNIAWWGNNYYDVNELGHISVCPDPDVPEARVDLAQLVKTREAQGQRLPALFCFPQILQHRLRSINAAFKRARESYGYNGDYFLVYPIKVNQHRRVIESLIHSGEPLGLEAGSKAELMAVLAHAGMTRSVIVCNGYKDREYIRLALIGEKMGHKVYLVIEKMSEIAIVLDEAERLNVVPRLGVRARLASQGSGKWQSSGGEKSKFGLAATQVLQLVETLREAGRLDSLQLLHFHLGSQMANIRDIATGVRESARFYVELHKLGVNIQCFDVGGGLGVDYEGTRSQSDCSVNYGLNEYANNIIWAIGDACEENGLPHPTVITESGRAVTAHHTVLVSNIIGVERNEYTVPTAPAEDAPRALQSMWETWQEMHEPGTRRSLREWLHDSQMDLHDIHIGYSSGIFSLQERAWAEQLYLSMCHEVQKQLDPQNRAHRPIIDELQERMADKMYVNFSLFQSMPDAWGIDQLFPVLPLEGLDQVPERRAVLLDITCDSDGAIDHYIDGDGIATTMPMPEYDPENPPMLGFFMVGAYQEILGNMHNLFGDTEAVDVFVFPDGSVEVELSDEGDTVADMLQYVQLDPKTLLTQFRDQVKKTDLDAELQQQFLEEFEAGLYGYTYLEDE”, the “soluble on expression in E. coli” value is reported as “soluble”.
With “DDVPPRIARAMENEEYWDFDIFELEAATHNRPLIYLGLKMFARFGICEFLHCSESTLRSWLQIIEANYHSSNPYHNSTHSADVLHATAYFLSKERIKETLDPIDEVAALIAATIHDVDHPGRTNSFLCNAGSELAILYNDTAVLESHHAALAFQLTTGDDKCNIFKNMERNDYRTLRQGIIDMVLATEMTKHFEHVNKFVNSINKPLATLEENGETDKNQEVINTMLRTPENRTLIKRMLIKCADVSNPCRPLQYCIEWAARISEEYFSQTDEEKQQGLPVVMPVFDRNTCSIPKSQISFIDYFITDMFDAWDAFVDLPDLMQHLDNNFKYWKGLDEM” the “soluble on expression in E. coli” value was “soluble”.
For “MKFDFPQVDLPCEILAWNDVTEDILNIYKQSCRLKAGIFAICTEGKMTATINLIDYEIKPNDLITLLPGTIIQFRERTEKVRLCFAGFSSECVERINLIKSMVSSFSKITECPIVELQEDIASYLIDYFSLLARVTCDEKLSLPSEMTEVSLRSILTAVGLIYQRYSSKNHNTNRKEEICRELVGLVTEHYTEERRAQFYADKLGISLQHLSTTVKQVTGRNVLDVIAYVVIIDAKAKLKSSNMTIQEIAYSLNFPSASFFGKYFRRYVGMSPLEFRNS”, the “soluble on expression in E. coli” value was “not soluble”.
With “SMAGCVVIVGSGVIGRSWAMLFASGGFQVKLYDIEQQQIRNALENIRKEMKLLEQAGSLKGSLSVEEQLSLISGCPNIQEAVEGAMHIQECVPEDLELKKKIFAQLDSIIDDRVILSSSTSCLMPSKLFAGLVHVKQCIVAHPVNPPYYIPLVELVPHPETAPTTVDRTHALMKKIGQCPMRVQKEVAGFVLNRLQYAIISEAWRLVEEGIVSPSDLDLVMSEGLGMRYAFIGPLETMHLNAEGMLSYCDRYSEGIKHVLQTFGPIPEFSRATAEKVNQDMCMKVPDDPEHLAARRQWRDECLMRLAKLKSQV” the “soluble on expression in E. coli” value was “soluble”.
For “IDHIEVLRDGASARYGSDAIAGVINIILKSADHGGSISSKYGQYKKGDGIQRQVSGNTGFALGDNGTLNLSGEGANNDYTNRAGDDLRASSIGSTTYGQQVFRQGEPETHEGKLQYNAEYSFNDAAEFYSFGGYSKRRGETAAFYRPSNASNNIAAIYPNGYLPLIHGTLEDTTFVTGLRGELADDWHYDLSANYGKNSYELRTKTINTSLGLNTPRSFDNGTLTNDQKQLSLDLSREFNATWLPYPVSVAFGAEYLRQGYQIEAGQAESYFQTGSSGLGGFRAADAGSYSRHNFAQYLDVETNLTEKLGVSAAVRHEDYSDFGSNVSGSLSARYDFTP”, the “soluble on expression in E. coli” value was “not soluble”.
For “GSDARSRGRVPGYASSSLYRESGIISARQLALLQRMLPRLRLEQLFRCEWLQQRLARGLALGREEVRQILLCAAQDDDGWCSELGDRVNLAVPQSMIDWVLLPVYGWWESLLDQAIPGWRLSLVELETQSRQLRVKSEFWSRVAELEPEQAREELARVAKCQARTQEQVAELAGKLETASALAKSAWPNWQRGMATLLASGGLAGFEPIPEVLECLWQPLCRLDDDVGAADAVQAWLHERNLCQAQDHFYWQS”, the “soluble on expression in E. coli” value was “not soluble”.
For “MKDLKLDEHTGLVLEGGGMRGVFTCGVLDYLMDHDIRFPYAIGVSAGACNGLSYASRQRGRAKFSNIDLLEKYNYIGLKHLLRKRNILDFDLLFNEFPEHILPYDYDTYFASPERFVMVTTNCMTGEANYFEEKRDKSRVIDIVRASSSLPFVCPVTYVDGVPMLDGGIVDSIPLQRAIADGYTRNVVILTRNRGYRKDTKDIRIPSFVYRKYPKLREALSRRCAVYNEQLEMVEQMEDEGKIIVIRPQKPVMVDRIERDVQKLTEFYEEGYDCARNLFEF”, the “soluble on expression in E. coli” value was “soluble”.
In the case of “GPGSMPKEPILHAELREWLEEYRRHRAFNPIAWIEEKCTKLNEYMRNNKLRGCVTNVSGGVDSAVVLSLCSRAQRMEGSPIVRNVGICQPICSSAWALERGRENIRAAGAEEVVVDQTDIHRQLSLSVEAAVGIDGKDFARGQLRSYMRAPVGYYVAQLCSQSGTPTIVMGTGNMDEDGYLGYFCKAGDGVVDVQLISDLHKSEVFKVARELGVPENTLQAAPSADLWDGQTDEEELGFPYDFVELYTGYFLKLNNGEREMKKKSLSAEARHQFEAYMKSCEETHCRNAHKLNGIVNL”, the “soluble on expression in E. coli” value is reported as “soluble”.
For “SWKRNKFRLTYVAEAPDLTQGLSNVHKKRVSAARLLSRQNLQSPKSSRSTIFVRLHTNGNQELQYQPGDHLGVFPGNHEDLVNALIERLEDAPPANHVVKVEMLEERNTALGVISNWKDESRLPPCTIFQAFKYYLDITTPPTPLQLQQFASLATNEKEKQRLLVLSKGLQEYEEWKWGKNPTMVEVLEEFPSIQMPATLLLTQLSLLQPRYYSISSSPDMYPDEVHLTVAIVSYHTRDGEGPVHHGVCSSWLNRIQADDVVPCFVRGAPSFHLPRNPQVPCILVGPGTGIAPFRSFWQQRQFDIQHKGMNPCPMVLVFGCRQSKIDHIYREETLQAKNKGVFRELYTAYSREPDRPKKYVQDVLQEQLAESVYRALKEQGGHIYVCGDVTMAADVLKAIQRIMTQQGKLSEEDAGVFISRLRDDNRYHEDIFGV”, the “soluble on expression in E. coli” value was “soluble”.
With “MNPTDWIDTGAVPPRPLPATVDAALAYLSEALGHPVYAHWTLARVKRRYGSLSDAKAAQPTVLKLLLAHDGAVEYWERGRLRTVPADQAPGPAMVLARLLHTHRRRFRLAASSGNAAAVPAASEAAGLVAAPWLAAYSHAEHTWLARAGRFAQLHAATNTLGVANDAQALALFLRDRTGRSPHTLRAYGAELRRLMRWCGVHEVGPLSDLTRQQLLAYRHTLQHGEPGTENASPQLSEATCTRALAVVASLYGYWYDTGYLQANPAAGLSAGSRARAGFAPTRLIPPALLDACDAWLDASAVDASLPALRRRAIWALYRYAGARLAELVWSDEAALPRLEAEVPGHWTLYVCGKGRKVRAIPLPVPCVAVLRAYRHARGLPPEPPAHEALPVIHGHKGEALQSAGLYREVKAIFAAVADGLQARDPAQALLLRAASPHWLRHAYARTLVVDHQVPLPAAQALLGHASVQTTAAYARTDLTQLRAFVDATFADDAPLEHHHHHH” the “soluble on expression in E. coli” value was “not soluble”.
